Data: PMC13787487 (2026)

Tests used:
Assay in all cases: FP
PSD-95 PDZ3 = biological target: T1, PSD-95 PDZ3 (UniProt P78352)
T1 chain: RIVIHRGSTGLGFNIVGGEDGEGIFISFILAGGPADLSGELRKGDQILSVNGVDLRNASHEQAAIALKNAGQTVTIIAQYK

SHANK3 PDZ = biological target: T2, SHANK3 PDZ (UniProt Q9BYB0)
T2 chain: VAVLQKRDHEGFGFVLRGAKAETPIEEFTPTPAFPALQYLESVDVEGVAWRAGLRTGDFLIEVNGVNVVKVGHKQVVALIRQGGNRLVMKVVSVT

SHANK1 PDZ = biological target: T3, SHANK1 PDZ (UniProt Q9Y566)
T3 chain: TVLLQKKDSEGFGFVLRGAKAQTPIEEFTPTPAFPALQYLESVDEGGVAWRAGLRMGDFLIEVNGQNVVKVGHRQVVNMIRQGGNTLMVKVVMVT

SHANK2 PDZ = biological target: T4, SHANK2 PDZ (UniProt Q9UPX8)
T4 chain: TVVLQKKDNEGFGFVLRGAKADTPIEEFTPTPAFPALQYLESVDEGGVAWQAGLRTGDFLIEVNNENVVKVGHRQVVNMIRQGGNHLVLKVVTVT

PSD-95 PDZ2 = biological target: T5, PSD-95 PDZ2 (UniProt P78352)
T5 chain: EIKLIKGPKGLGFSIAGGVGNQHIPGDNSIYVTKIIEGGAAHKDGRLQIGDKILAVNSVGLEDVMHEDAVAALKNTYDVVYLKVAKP

Kd (PSD-95 PDZ3): 40.7 µM | Kd (SHANK3 PDZ): 8.6 µM | Kd (SHANK1 PDZ): 7.6 µM | Kd (SHANK2 PDZ): 5.2 µM | Kd (PSD-95 PDZ2): 31.3 µM
Binder: YNRTNRSRMPNLNDLKETAL [CDKL5-1 941-960]
